The results in this text go back to patent US20220162259A1, “PEPTIDE COMPLEX AND PRODUCTION METHOD THEREFOR, AND USE OF SAID PEPTIDE COMPLEX” (KANEKA CORPORATION, priority 2019, published 2022).

Numbered stars: 1 amine (or outer) side, 2 acyl side, 3 side chain; on linkers, the order of the positions; unused ones are H or OH. Bridge positions count the residues as written; N and C are the ends. Square brackets hold non-standard residues; d marks the D form. Ends that are not written are not given here. Peptide text beside a SMILES is read from it. * marks the point of attachment. X1 = NC(N)=NCCNC(=O)CCOCC(COCCC(=O)NCCN=C(N)N)(COCCC(=O)NCCN=C(N)N)NC(=O)CON=C(C[*:1])C[*:2]; FITC = O=C1OC2(c3ccc(O)cc3Oc3cc(O)ccc32)c2ccc(NC(=S)*)cc21; Ahx = NCCCCCC(=O)O

This series concerns HeLa cells. Kind of series: Evaluation of cell-membrane permeability (flow cytometry of FITC-labelled peptide complexes). It counts as cell-based, Human. Particulars: for Mode of fluorescence intensity, 0 hour of culture / Mode of fluorescence intensity, 1 hour of culture: 2 μM peptide complex, flow cytometer; for Mode of fluorescence intensity, 0 hour of culture: living (propidium iodide-negative) cells; for Mode of fluorescence intensity, 1 hour of culture: 37° C., 5% CO2, living (propidium iodide-negative) cells; for Level of cell-membrane permeation compared with Comparative Example 1: at 1 hour of culture, versus peptide complex of Comparative Example 1. How it is done:
HeLa cells (Human cervix adenocarcinoma cells) were cultured for 1 hour in a cell culture containing 2 μM of the peptide complex synthesized in Example 1 or 2 or Comparative Example 1 under conditions of 5% (v/v) CO2 and 37° C. For culturing the HeLa cells, FluoroBrite D-MEM (obtained from ThermoFisher Co.) (supplemented with 10% (v/v) FCS (fetal calf serum) and 10% (v/v) GlutaMax (obtained from ThermoFisher Co.)) was used.
Next, the surfaces of the cells were washed with D-PBS (−) (supplemented with heparin (20 units/mL)), followed by recovery of the cells. The cells were suspended in D-PBS(−) (supplemented with 0.5% (v/v) BSA (bovine serum albumin), 200 mM EDTA (ethylenediaminetetraacetic acid), and 0.2% (v/v) propidium iodide (obtained from Sigma-Aldrich Co.)). A flow cytometer (BD FACS AriaIII) was used to measure fluorescence intensity. Upon flow cytometry analysis, the mode of fluorescence intensity was calculated for a population of living cells excluding dead cells that were propidium iodide-positive. As a control, dimethyl sulfoxide (DMSO) not containing the peptide complex was tested in the same manner.
(In flow cytometry, cells or beads pass a laser one at a time.)

With `CC[C@H](C)[C@@H]1NC(=O)[C@H](Cc2ccc(O)cc2)NC(=O)[C@H](CC(C)C)NC(=O)[C@H](CCSC)NC(=O)[C@@H](NC(=O)CCCCCNC(=S)Nc2ccc3c(c2)C(=O)OC32c3ccc(O)cc3Oc3cc(O)ccc32)CSCC(=NOCC(=O)NC(COCCC(=O)NCCN=C(N)N)(COCCC(=O)NCCN=C(N)N)COCCC(=O)NCCN=C(N)N)CSC[C@@H](C(N)=O)NC(=O)CNC(=O)[C@H](C(C)C)NC(=O)[C@H](CO)NC(=O)[C@H](Cc2ccccc2)NC(=O)[C@H](Cc2ccc(O)cc2)NC(=O)[C@@H]2CCCN2C(=O)[C@H](C(C)C)NC1=O` [Comparative Example 1, reference compound] ({FITC-Ahx}-CMLYIVPYFSVGC-NH2; linker 1-13 via X1), the “Mode of fluorescence intensity, 0 hour of culture” value (shortened to “Mode … 0 hour of culture”) is recorded as 66.6 and the “Mode of fluorescence intensity, 1 hour of culture” value (“Mode … 1 hour of culture” below) is 412.

As for “Example 1: FITC-labelled cyclic peptide CMLYIVPYFSVGC with cell-membrane-permeability-imparting group G6 (two dendritic units, six guanidino groups) bound by oxime ligation ([Ahx]CMLYIVPYFSVGC-NH2; not fully specified (bridges); numbers in words are those of the source; also: cyclic, mode not given here, FITC label, place not given here, G6 guanidino dendron bound by oxime ligation, place not given here)”, the “Mode … 0 hour of culture” value is 60; the “Mode … 1 hour of culture” value was determined as 730; the “Level of cell-membrane permeation compared with Comparative Example 1” value is reported as “higher levels of cell-membrane permeation”.

In the case of “Example 2: FITC-labelled cyclic peptide CMLYIVPYFSVGC with cell-membrane-permeability-imparting group G9 (three dendritic units, nine guanidino groups) bound by oxime ligation (not fully specified (N-terminus, C-terminus, bridges); also: cyclic, mode not given here, FITC label, place not given here, G9 guanidino dendron bound by oxime ligation, place not given here)”, the “Mode … 0 hour of culture” value is 65.8; the “Mode … 1 hour of culture” value is 877; the “Level of cell-membrane permeation compared with Comparative Example 1” value is “higher levels of cell-membrane permeation”.
